In publication doi:10.1101/2023.06.15.543498 one finds Kd data, which are given here for 4 substances.

This assay deals with E. coli 70S ribosomes without a bound tRNA (E. coli (endogenous in strain MRE600)) (UniProt P0A7L0). The assay is described as follows: populations of particle classes in cryo-EM samples.
For orientation: Kd means the free concentration of one partner at which half of the binding sites on the other are occupied at equilibrium, for simple one-to-one binding. A higher Kd goes with weaker binding. As for “EQ2-EttA (hydrolysis-deficient EQ2 mutant of E. coli EttA, Energy-dependent translation throttle A) (from UniProt P0A9W3 1-555) (enzyme)”, the Kd amounted to 62 µM.
Next, “EQ2-Uup (hydrolysis-deficient EQ2 mutant of E. coli Uup) (from UniProt P43672 1-635) (enzyme)”: > 12 µM.
Next, “EQ2-YbiT (hydrolysis-deficient EQ2 mutant of E. coli YbiT) (from UniProt P0A9U3 1-530) (enzyme)”: 1.2 µM; “EQ2-YheS (hydrolysis-deficient EQ2 mutant of E. coli YheS) (from UniProt P63389 1-637) (enzyme)”: > 19 µM.
